Reference: paper PMC9486129 (2022)
Where no end group is shown, it is not given here. [ ]: non-standard residue; d: D form. pY = N[C@@H](Cc1ccc(OP(=O)(O)O)cc1)C(=O)O

T1: ZAP-70 tSH2 WT (1–256)
T1 chain: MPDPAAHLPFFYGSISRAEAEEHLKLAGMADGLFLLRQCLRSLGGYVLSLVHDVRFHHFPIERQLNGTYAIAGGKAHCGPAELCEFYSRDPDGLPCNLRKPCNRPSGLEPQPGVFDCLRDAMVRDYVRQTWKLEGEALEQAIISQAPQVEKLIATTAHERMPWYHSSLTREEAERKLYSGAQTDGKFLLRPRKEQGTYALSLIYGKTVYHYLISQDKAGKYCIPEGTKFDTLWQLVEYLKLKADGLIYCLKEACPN


Experiments:
[1] = biological target: ITAM-Y2P-ζ3 ITAM3 (Homo sapiens, UniProt P20963, doubly phosphorylated ITAM)
ITAM-Y2P-ζ3 ITAM3, sequence (P20963 128-162): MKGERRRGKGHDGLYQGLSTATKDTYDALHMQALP

[2] = biological target: T1, ZAP-70 tSH2 WT (1–256); assay: Kd1, first site (intrinsic fluorescence titration)
[3] = biological target: T1, ZAP-70 tSH2 WT (1–256); assay: ITC; Kd2, second site

Kd [1] | Kd [2] | Kd [3] | Binder
6.8 nM | – | – | ZAP-70 C-SH2 (protein) WYHSSLTREEAERKLYSGAQTDGKFLLRPRKEQGTYALSLIYGKTVYHYLISQDKAGKYCIPEGTKFDTLWQLVEYLKLKADGLIYCLKEAC
– | 4.5 nM | 9800 nM | NQL[pY]NELNLGRRAE[pY]DVLD [ITAM-Y2P-ζ1 E13A]
